Test results as given in US20040005669A1 (CREATIVE PEPTIDES SWEDEN, published 2004).

B1: BB-C3 fusion protein (other)
chain: MKAIFVLNAQHDEAVDANFDQFNKYGVSDYYKNLINNAKTVEGVKDLQAQVVESAKKARISEATDGLSDFLKSQTPAEDTVKSIELAEAKVLANRELDKYGVSDYHKNLINNAKTVEGVKDLQAQVVESAKKARISEATDGLSDFLKSQTPAEDTVKSIELAEAKVLANRELDKYGVSDYYKNLINNAKTVEGVKALIDEILAALPKTDTYKLILNGKTLKGETTTEAVDAATARSFNFPILENSSSVPASQAREAEDLQVGQVELGGGPGAGSLQPLALEGSLQRTASQAREAEDLQVGQVELGGGPGAGSLQPLALEGSLQRTASQAREAEDLQVGQVELGGGPGAGSLQPLALEGSLQRTASQAVD
notes: Expressed in E. coli from pTrpBB-C3; 39.1 kDa
B2: BB-C7 fusion protein (other)
chain: MKAIFVLNAQHDEAVDANFDQFNKYGVSDYYKNLINNAKTVEGVKDLQAQVVESAKKARISEATDGLSDFLKSQTPAEDTVKSIELAEAKVLANRELDKYGVSDYHKNLINNAKTVEGVKDLQAQVVESAKKARISEATDGLSDFLKSQTPAEDTVKSIELAEAKVLANRELDKYGVSDYYKNLINNAKTVEGVKALIDEILAALPKTDTYKLILNGKTLKGETTTEAVDAATARSFNFPILENSSSVPASQAREAEDLQVGQVELGGGPGAGSLQPLALEGSLQRTASQAREAEDLQVGQVELGGGPGAGSLQPLALEGSLQRTASQAREAEDLQVGQVELGGGPGAGSLQPLALEGSLQRTASQAREAEDLQVGQVELGGGPGAGSLQPLALEGSLQRTASQAREAEDLQVGQVELGGGPGAGSLQPLALEGSLQRTASQAREAEDLQVGQVELGGGPGAGSLQPLALEGSLQRTASQAREAEDLQVGQVELGGGPGAGSLQPLALEGSLQRTASQAVD
notes: Expressed in E. coli from pTrpBB-C7; 54.2 kDa; also called peptide product comprising the fusion partner BB and seven copies of the insulin C-peptide

Assays:
[1] = biological target: rabbit anti-human C-peptide antiserum; assay: competitive radioimmunoassay against labelled C-peptide tracer; expected concentration 3.31 nM
[2] = biological target: T1, human serum albumin (HSA), immobilised on Sepharose (human, UniProt P02768 25-609); assay: affinity chromatography on HSA-Sepharose
T1 construct: also called HSA-Sepharose; human-serum-albumin (HSA)-Sepharose
Method: E. coli cells harbouring pTrpBB-C3 and pTrpBB-C7, and thus encoding the fusion proteins BB-C3 and BB-C7, respectively, were grown overnight at 37° C. in shake-flasks containing 10 ml Tryptic Soy Broth (Difco, USA) (30 g/l) supplemented with yeast extract (Difco) (5 g/l) and kanamycin monosulfate (50 mg/l). The overnight cultures were diluted 10-fold to 100 ml into baffled shake-flasks having the same type of media and grown at 37° C. Gene expression was induced at mid-log phase (A_{600 nm}≅1) by the addition of β-indole acrylic acid to 25 mg/l. Cells were harvested 20 hours after induction, by centrifugation at approximately 6000 g for 10 min. Cells were resuspended in 1/20 of the culture volume in TST (50 mM Tris-HCl pH 8.0. 200 mM NaCl, 0.05% Tween 20, 1 mM EDTA), lysed by sonication and centrifuged at approximately 40,000 g. The samples for the sonication were prepared by sedimenting the shake-flask culture by centrifugation, and thereafter resuspending the cells in 30 ml of cold TST buffer. The samples were stored on ice during a 2 minute pulsed sonication which was performed on a Sonics and Materials Inc. (Danbury, Conn., USA) Vibra Cell (500 W) using a 13 mm standard horn tip, a 70% duty cycle (20 kHz) and with the output control set to 6.5. […] Eluted fractions were monitored for protein content by absorbance measurement at 280 nm and relevant fractions were lyophilised.

T1 sequence (P02768 25-609 limits assumed): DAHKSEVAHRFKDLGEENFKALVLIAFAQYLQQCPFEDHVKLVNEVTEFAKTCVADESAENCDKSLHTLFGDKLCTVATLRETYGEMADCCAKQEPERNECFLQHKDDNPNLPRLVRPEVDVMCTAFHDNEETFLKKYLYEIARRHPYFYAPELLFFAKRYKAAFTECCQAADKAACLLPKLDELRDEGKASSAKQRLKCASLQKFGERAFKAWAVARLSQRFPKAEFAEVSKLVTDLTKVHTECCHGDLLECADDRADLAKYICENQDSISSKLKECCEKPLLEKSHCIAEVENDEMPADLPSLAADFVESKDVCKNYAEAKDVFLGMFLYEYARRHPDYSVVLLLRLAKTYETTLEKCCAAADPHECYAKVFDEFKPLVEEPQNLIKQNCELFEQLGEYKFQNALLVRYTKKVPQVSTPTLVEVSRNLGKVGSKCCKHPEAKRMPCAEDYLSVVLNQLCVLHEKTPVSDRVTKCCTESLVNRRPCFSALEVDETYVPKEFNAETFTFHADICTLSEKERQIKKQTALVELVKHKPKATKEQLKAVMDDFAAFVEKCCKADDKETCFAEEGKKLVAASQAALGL

Row | Binder | Assayed concentration [1] | Assayed concentration as percent of expected [1] | binding result [2]
1 | EAEDLQVGQVELGGGPGAGSLQPLALEGSLQ [Insulin C-peptide (from cleavage of fusion protein BB-C7)] | 2.34 nM | 71% | –
2 | B1 | – | – | binds
3 | B2 | – | – | binds
